Experiments:
mouse C3b (mouse) = mouse C3b (mouse) (UniProt P01027); experiment: SPR; C3b amine coupled to a C1 chip (233 RU murine, 258 RU human); FH flowed over, two-fold dilution series from 2 uM to 6 nM; BIAcore T200, 25°C, HBSP+ (10 mM HEPES, 150 mM NaCl, 0.05% P20); equilibrium data, 1:1 binding model
human C3b (human) = human C3b (human) (UniProt P01024); experiment: as above

Kd (mouse C3b (mouse)): 1.2 µM | Kd (human C3b (human)): 1.6 µM
Substance: recombinant murine factor H (from UniProt P06909 19-1234) (natural protein)

From PMC8149785
